From the DeepSol protein solubility set

Experiment: soluble on expression in E. coli; label from the status in PepcDB or PDB records

| Sequence | soluble on expression in E. coli |
| --- | --- |
| MSLDTPDYKRVVLKLSGEALAGNDGFGINPSVVNLISAQIKEVVELGVEVAIVVGGGNIWRGKLGSEMGMDRAAADQMGMLATIMNSLSLQDSLENIGVATRVQTSIDMRQIAEPYIRRKAIRHLEKGRVVIFAGGTGNPYFSTDTAAALRAAEIEADVILMAKNNVDGVYNADPKLDENAKKYEELSYLDVIKEGLEVMDTTASSLSMDNDIPLIVFSFTEQGNNIKRVILGEKIGTTVRGKKEGHHHHHH | soluble |
| MIELEGVPELIDPVMVAAFEGWNDAGDAASTAVAHLDREWKGEVFAALDAEDYYDFQVNRPTVWLDGGVRKITWPTTRLSVVRVGGEKPRDLVLVRGIEPSMRWRSFCNELLAFAHELGVELVVVLGALLGDTPHTRPVPVSGVTSDPDLARTMDLEETKYEGPTGIVGILQEACTHAGVPAVSLWAAVPHYVSQPPNPKATLALLNRLEDLIDVRIPLGELPEDARAWQVGVDQLAAEDSEVAEYVQSLEEARDTAELPEASGEAIAREFERYLRRRDGGGPAAGGHATADGSDGTSYLRDAPGGRTRPPKPPKPEAEDDGPADEGSDDSSED | not soluble |
| RQTHYLIHSDLGFRTRGVLWISNTVDSVPKGILRAELEKIPGVEKVSYACGNPIRYLNNMSFTKDGVNVSTWEMVVDSVFFDFFEISPIPLTDEPVETFFDREKMRAARIIPEWGNMKMINAVRPDPETGIFTQGDDDNDEVKYRMVGRIPDLKYKPLNMEQSPLQIRPLYAREQPWVTLVRASDEADKSAVLAAVSDTYKRVTGAEDIEPLWAEDIILDRYKSQTNLSQ | not soluble |
| MAFGLPDTAALNKAADQKTSVSMPVRGRLVMNDSGILDVQLVKTNTAGAVKVARAVLDKETGYWGYTLPAVADVPAQTIFVSPADALGANGPLTLSGPVPLPERILHTGDQISAPQATDKTVTPVADDLDFDDIILVFPPESGLKPLYVMYRSPRNMPGTVSGKGLEHHHHHH | soluble |
| MGSDKIHHHHHHMIRFENISKQNSHRILFLDSSAALNRGEKIGLVGPNGAGKTTLFRMITGEEVPDAGQVSIEKQVSIGYFNQDVGEMSGRSAVAEVMDGAGPVSSVAAEMAELEAAMCDPDRDDMDAVVERYGEVQARFEELGGYELEGRAREVLAGLSFSQEMMDGDVGALSGGWKMRVALGRILLMRPDAMLLDEPSNHLDIESLIWLEEFLKGYDGALLMTSHDREFLNRIVTKIIEIDGGSLNTYSGDYAFFERQRAQNEKQQQAQFERQQAMLAKEIKFIERFKARASHAAQVQSRVKKLDKIERFEPPRRRQTVSFDFPPAPRSGDDVAVFKSVHKGYGSRAIYQGLDLIIRRKERWCVMGVNGAGKSTLLKLVAGAADPDSGTVTVGASVKMGYFSQHAMELLDGERTVYESLEDRFPQANQGSLRTLAGCFGFSGDDVEKKCRVLSGGEKARLVMAIMLYNPPNFLVLDEPTNHLDLDTKQMLIAALANYEGTMLFVSHDRHFLAALSNRVLELTPEGVHQYSGGYTEYVARTGHEAPGLRS | not soluble |
| MINIVIPMAGAGSRFAQAGYKKPKPFIDVLGRPMICHVLDNLNMPDARFILLTRKEHFENEQETVNWIKSKYNVEFVLIDNLTEGAACTVLHAHKLIDNNTPLLIANSDQIVDMNIAEFINDSENRNLDGSVLCFKDHDTKWSYAKIDGEGLITEIREKVVISEFATVGIYYFAKGGFFVKNAIDMIIRNERVKNEFYVAPVYNFGIQEGLKFGIFNININQMHGIGTPTDLNVYIDLVQRNKLEHHHHHH | soluble |
| MKAIPSNVWATRPTKPFTCFFCPMIVLTEDGSPTILSPHYGEYYHSIHGACRESEHVFVHTGLLHRLESFDPSGTLYLFEVGFGTALNALLTLREQRCRGLSIHYSAIEKFPLERDVYEHLRFSVGMADEDKLLQSLHHAPWGMDCEICPGFTLHKIASDLTDFTFRKPIDLIYFDAFSPEAQPELWSEEIFIRMVAACRSGAVLATYCAKGEIRRRLTRAGFHMERLPGPPGKREILRGTYYLEDRGDSL | not soluble |
| MRRLLLASSLLTLLAGCANHVIDPHGYDETGTAAYYGTRHHGNRTASGEPFNQNALTAAHRQLPFGTRVKVTNLNNDKSVIVRVNDRGPHTRGRLIDVSREAAEQLGMLRSGTAPVRVQALD | not soluble |
| VDYSRTETLQFEDDEYYYYVKAVPKVGVTLPEKQVKHITEPHEEQPKEAKAAVNLKPEPMVQETVAIDTSQIQEADLEKNVDELLLTQSLNEELRQNQNEPEDDLSLTKSLGDLWTKKPGSGE | not soluble |
| MKKEIIVYTISDSLGETSQKLLAAASAQYPDISFLNRYNFSFVTTEEELLEILKDALKDKALVVSTLVSKQLITAAKEFSERTGLLYLDLMAPFFELIQAKAGVDPIEEPGRRHQLDRAYFDKISAIEFAVKYDDGKNPQGFLDSDILLLGVSRTSKTPVSMYLANQGYRVSNLPLIPEVPLPPILEEMDPQKMIGLVCSPETLGQIRSSRLASLGLGNETSYTNVERIEQELAYAEEIFAKYGIPVIDVTAKSVEETAFLIKEKLDERNLEHHHHHH | soluble |
| MGSDKIHHHHHHMYVAVKGGEKAIEAAHQLQSCRRRGCTDIPELDCSQIEQQLNLAVDRVMTEGNIYDRQLAALAIKQASGDLVESIFLLRAYRSTLPRWGISQPLNTPDMRLERRVSAIFKDLPGGQLLGPTYDYTHRLLDFSLLADGEDPVAPQPDAVYEDEGTREHIPHAFQFLAQQHLVPERNISDDSNPSDITMEPPSYPGTRAARLQQLFRGDEGFLLSLGYSTQRGYGRNHPFVSEIRTGYITVSIVAEEVGFAIDIGEILLTECETVNGFVKPANDAPHFTRGYGLAFGRSERKAITVALADRALQAADYQEEVRGPAQDEEFVLSHADNVEAAGFVSHLKLPHYVDFQSELELLKRLREEYLASVPRSKA | not soluble |
| SLQEAETAARLHEVHGSWQLACAAAAKKDSADAASSTGGETKPPCAIAQVQLEEKTRKLVVSVEFRLDDAATPDRLNGTMVLPFGLAVTKLFSVKSGNMRLQEVQVSTCLPVGCIVSFTPFIELVSALKAEQTLTIEAPDLQGRIVSFQLQGKGFPEALKRLGEVR | not soluble |
| MAMLAYQVSKSIEINKSQSEIIDYLKDFKNWPEWSPWIILEPSCELTYSDNQGHVGAGYQWNGQRIGTGAVVLESTQEHRLDMELHFFRPIKSHGKVTLIVTPSQDGCTVEWQMQSRVPWYLFFLKTMFKSMVEMDYDRGLKMLKSQLETGQILSQLSEIGTRHQDLIHYVGLQGSGTIPELGPIMKKQTQRLYELMQKESLPVSGELFCYYLSMDMKLGHFEFVTCLPVSEMVEVPNGFVFGTIPACETFVIEHKGDYQFLGNAWSLGMNLTRQNGIKVKSKPLGIERYLNNPNETPKAGLRTEVILFKKLEHHHHHH | soluble |
| MARNPRTTVRRILNSAPRSLLIQSVTIVALDPTDNNHGSHQPGSNGPSNSSTQADNFETETTADEERQKEDGVEDELEDEETTGFIDEDGEIRYPVDEVGNYEIDQEAETDESFYLDTQRDSSLCDERSQLCRSLSDQNLRTTFFLITTTNSKAAILRYLHFHNVSQDSILRKLLLNDSHLTLVEVCNLCAQNIELCKCEDMQEKCQLIFGDLKKWLEVILNSFANIMMKTKTTILEGYNSSSPINKGIFKKKLLSEMADNEMWMHFESSFDGIKVHKNGNQNIWPYSLLNLDLEDVHRASPQALILAALFIGFKNPTTKIHDRLTQWILLQMDEHVFFSEGVAWKADLTCANHDDPARRIVYNQCGLRSSGSCNFCLNQETECKINDEYTTLRENLTGSCPSTMNDGLRQRNQHSHFHKHVLYMHLCPVTSNARMLPKRVHFSALFSKGKWNLFPSKSVDFSSTPSLPSRFRSLSGKASQCTGSEKALSIVVAAAFSGELGGVSSAIILSIHGLYRLCIEPQSITDETLHLKIEQISKSIEVLIVKRAPEMLNGIKVHQVLYHLARMTELYGSLFPLSTQWFEYFYHTIQRTLVPEIYNGLGMSIMRKMSALQEIKTEAAFRLHTNHQFRTEANLKMCYELGLLRRLKRISVVPTPPQYQQFCETGDVFLNVVYHDGIRYSNYCNKKTDDSNVTFIEYARVRFAKIIGMLLKENNTDLRFILKKYCNTNDHLIDISNKLYEEDVPQMHIQNWVDSVSKSSFGGRVTLTNTVVVVSADSIVGHAVVVKRNNNCVALPFSRRISLS | not soluble |
| MARWERIVDGVKSIALMRKKIITRGKRIALFVDGPNILRKELGIHLEDIVEALSKLGNIRVAKVILNQYAPQSLIEAVSNQGFEPVIVAGEIGVKMAVEAMREVYNPNIDMIALATRNTEFVPIILKAKEKGKETAIIGVEHGLSSALKHAADYVIILKPRGEKIEERHHEDSEERREGGRGA | not soluble |
| MFKGDMNKKRAKALQKVKEAITLHGGQTILSTGITGDDARLAKAVCEAGVKLLEPNHPALALARGHKGVSNMHAAEQIRHEITNSQMAEAVHGVRNVVPDDIFITVGIAGGFTETLPVPLSEKEILEIARAGADGLHTHKSDWDDLQDIVNLAHQYGLTVDAYIGHPDDLHTFGIPARTPEEVASVAKRMQDIGVDMIGLMTGMSYEGVAAGDIPQMIKDRLRALVGAVDVPTLAEGGINLANAKAFKDTGVNILVVGTAIDNMVCNAAKEAVTPFIVH | soluble |
| MPMKDISDFAANDPNKDYCVYCSRPDGEMQSFEEKKESLTKFIVKTQGADENVAWKIAENMMHKLPAWKEYFN | not soluble |
| MKVVIASDHGGMNIRKELVSLLEELNIEYIDLGCECEAGSVDYPDFAFPAAEMVANGEVDRGILVCGTGIGMSIAANKVNGIRCALVHDTFSARATREHNDTNMLAMGERVIGAGLARDIAKIWLTTEFEGGRHENRVGKIKTYEAK | not soluble |
| MSNEHTRPPLPPFTRESAIEKVRLAEDGWNTREPEKIALAYTVDTQWRNRAEFANNREEARDFLTRKWKKELDYRLIKELWAFTDNRIAVRYAYEWHDDSGNWFRSYGNENWEFEADGLMHRRFACINDMPIKESERKFHWPLGRRPDDHPGLTELGLLEHHHHHH | not soluble |
| MNRVKYTIKCTILQGKIKERLIKNIHLNEMNLRNWSTLKWSTRV | not soluble |
| MGSDKIHHHHHHKAFPLRTVFSEGIYYVCAEDLAPAGVGYIHSNGYHYIVYDNHVLFIKEHETIFDFVEKLSPPLFVDGLLFVPIDALKKVMEGYQMYTKGEKVLIYDSLPIVLSAAKEKNGVTITYTGTIVPDMVSVEKSMGRVRINLSPVVVSLPNVSEDIKVELEKNGLSFIVDVGNFYPDVEYSIGDGKLLFRFLLVEGFFGRLEVADGVVFERKIEEFDEGEKTVVNYLIMDPEKVTIKPVVSENGFGTIERLDEMVKRVGGIAGINGNYFDPVTKFPIGLVVIDGKPYSAMFSGRPVFAITEDNEVFIGRVIVDVTLMVKDVLFLVKGINTLGEGEVLVYTKEFSKEIPKKDDKIYFVVKDSKVSQIGYKSHAEDSEYVVSISKKYEEYLSDLKEGDEVYISLQPNIPLRIKQAVEGGPLLIQNGAPIPDAWEEKARYGGGIAYAKAPRTVIATKDGKLWFLVFEGYNHITRGLTYDELVDFLVSRGFEDAMCVDGGSSSVMAVAGSLFGRTENSTAAIPVGIVVWEKKKTEVGK | not soluble |
